In PMC2779898:

How the values were obtained:
Assay in all cases: EMSA
[1] = target: T1, PF1488 (Pyrococcus furiosus, UniProt Q8U0U4 1-222)
T1 sequence: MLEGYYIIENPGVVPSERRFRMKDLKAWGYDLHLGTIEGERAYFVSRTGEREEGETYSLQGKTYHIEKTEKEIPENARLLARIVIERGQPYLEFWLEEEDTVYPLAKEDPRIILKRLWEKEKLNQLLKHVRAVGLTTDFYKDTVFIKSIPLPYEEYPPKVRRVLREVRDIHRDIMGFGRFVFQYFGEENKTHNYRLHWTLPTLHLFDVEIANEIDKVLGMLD

[2] = target: T2, PF0547 (Pyrococcus furiosus, UniProt Q8U3C3 1-448)
T2 sequence: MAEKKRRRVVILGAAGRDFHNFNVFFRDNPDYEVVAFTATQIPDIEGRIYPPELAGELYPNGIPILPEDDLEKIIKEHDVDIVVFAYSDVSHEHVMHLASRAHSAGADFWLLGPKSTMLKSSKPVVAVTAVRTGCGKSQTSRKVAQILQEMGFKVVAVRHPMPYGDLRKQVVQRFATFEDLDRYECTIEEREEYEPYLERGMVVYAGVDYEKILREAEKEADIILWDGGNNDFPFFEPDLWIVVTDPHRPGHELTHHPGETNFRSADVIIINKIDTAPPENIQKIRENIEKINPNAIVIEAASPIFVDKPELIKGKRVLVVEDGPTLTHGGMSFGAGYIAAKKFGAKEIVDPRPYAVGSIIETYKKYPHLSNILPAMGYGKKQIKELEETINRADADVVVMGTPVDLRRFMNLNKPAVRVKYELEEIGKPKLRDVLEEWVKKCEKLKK

[3] = target: T3, PF1142 (Pyrococcus furiosus, UniProt Q8U1R3 1-280)
T3 sequence: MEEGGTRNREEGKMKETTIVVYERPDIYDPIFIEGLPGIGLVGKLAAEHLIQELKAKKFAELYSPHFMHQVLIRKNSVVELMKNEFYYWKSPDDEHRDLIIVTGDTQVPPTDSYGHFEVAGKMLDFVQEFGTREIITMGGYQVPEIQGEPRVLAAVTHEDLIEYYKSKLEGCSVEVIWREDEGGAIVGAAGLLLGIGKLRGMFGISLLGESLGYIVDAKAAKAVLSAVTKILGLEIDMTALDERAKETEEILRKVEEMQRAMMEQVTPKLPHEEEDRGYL

[4] = target: T4, PF1913 (Pyrococcus furiosus, UniProt Q8TZS1 1-157)
T4 sequence: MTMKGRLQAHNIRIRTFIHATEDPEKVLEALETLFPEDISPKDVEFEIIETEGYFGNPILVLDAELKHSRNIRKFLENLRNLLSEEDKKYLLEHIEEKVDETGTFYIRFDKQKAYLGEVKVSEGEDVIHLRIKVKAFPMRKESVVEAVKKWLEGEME

Measured: binding result

B1: MPOR-27 (structured_RNA)
RNA: GAAACAAGGAGAAAUGGUUCGUGUCCU
no binding: [1] | [2] | [3] | [4]
